From paper PMC3281842, “Crystal Structure of TDRD3 and Methyl-Arginine Binding Characterization of TDRD3, SMN and SPF30” (PLoS ONE, 2012)

What was measured:
[1] = target: PIWIL1-R4me2s (Homo sapiens) (UniProt Q96J94); details: cited from earlier work
[2] = target: PIWIL1-R4me1 (Homo sapiens) (UniProt Q96J94); details: cited from earlier work
[3] = target: PIWIL1-R4me2a (Homo sapiens) (UniProt Q96J94); details: cited from earlier work
H3R17me2a = assay: ITC; 20 mM Tris pH 8.0, 200 mM NaCl; 25°C; one-site binding model
H3R2me2a = assay: fluorescence polarisation; fluorescein-labeled peptides; 20 mM Tris pH 7.5, 50 mM NaCl, 1 mM DTT, 0.01% Triton X-100; 25°C; one-site binding model; Kd the average of three independent measurements
H3R2me2s = assay: as above

SND1 650-910, sequence (Q7KZF4 650-910): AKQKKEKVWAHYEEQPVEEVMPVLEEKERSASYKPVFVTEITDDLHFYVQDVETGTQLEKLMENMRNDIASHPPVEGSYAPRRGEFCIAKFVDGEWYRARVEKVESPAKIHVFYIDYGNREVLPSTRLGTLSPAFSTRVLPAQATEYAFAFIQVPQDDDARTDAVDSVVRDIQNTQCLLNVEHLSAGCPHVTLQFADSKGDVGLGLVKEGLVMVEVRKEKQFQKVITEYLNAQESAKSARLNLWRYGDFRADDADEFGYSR

Substance	Kd [1]	Kd [2]	Kd [3]	Kd (H3R17me2a)	Kd (H3R2me2a)	Kd (H3R2me2s)
SND1 650-910 (from UniProt Q7KZF4)	10 µM	19 µM	42 µM	–	–	–
TDRD3 (aa 520–633) (from UniProt Q9H7E2 520-633) (domain or fragment)	–	–	–	> 1000 µM	> 500 µM	> 500 µM
